Measurements taken from PMC6316570, “G-Protein Coupled Receptor Protein Synthesis on a Lipid Bilayer Using a Reconstituted Cell-Free Protein Synthesis System” (Life, 2018).

Tests used:
His-tagged CX3CR1 [1] = target: T1, His-tagged CX3CR1 (human, UniProt P49238 1-355); assay: SPR; Biacore T200; unpurified PURE-synthesized His-tagged CX3CR1-nanodisc complex captured (~1500 RU) on Penta-His antibody on CM5 chip; purified CX3CL1 injected; HBS-P (10 mM HEPES pH 7.4, 150 mM NaCl, 0.05% P20), 25 °C, 30 µL/min; single cycle kinetics; 1:1 interaction model
T1 construct: CX3CR1 (fractalkine receptor), human cDNA; Two templates are described; The pET28a plasmid has an N-terminal 6xHis tag, the linker DYDIPTT and a TEV site; The linear PCR product takes its His-tag from the reverse primer, which would be C-terminal; In the nanodisc assay the receptor sat in a lipid nanodisc (MSP scaffold, POPC/POPS/cholesterol); In the micelle assay it was in detergent; also called …
T1 sequence (looked up): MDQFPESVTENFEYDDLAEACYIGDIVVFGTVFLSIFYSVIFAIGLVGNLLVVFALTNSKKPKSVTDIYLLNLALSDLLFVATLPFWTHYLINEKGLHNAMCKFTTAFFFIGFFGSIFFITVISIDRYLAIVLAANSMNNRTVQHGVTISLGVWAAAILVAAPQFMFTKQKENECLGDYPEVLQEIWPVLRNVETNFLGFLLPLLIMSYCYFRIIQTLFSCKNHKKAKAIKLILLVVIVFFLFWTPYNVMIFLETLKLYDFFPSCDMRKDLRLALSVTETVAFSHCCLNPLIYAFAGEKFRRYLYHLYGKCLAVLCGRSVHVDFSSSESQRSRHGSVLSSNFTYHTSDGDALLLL

His-tagged CX3CR1 [2] = target: T1, His-tagged CX3CR1; assay: SPR; Biacore T200; unpurified PURE-synthesized Strep-tag II CX3CL1 captured (~1000 RU) on StrepMAB-Immo antibody on CM5 chip; purified His-tagged CX3CR1 synthesized with micelles, in detergent, injected; HBS-P, 25 °C, 30 µL/min; single cycle kinetics; 1:1 interaction model; conditions: one partner purified

“recombinant CX3CL1 protein (from UniProt P78423 25-397) (ligand)” showed a Kd (His-tagged CX3CR1 [1]) of 27.8 nM.

B1: strep-II-tagged ligand CX3CL1 (ligand, UniProt P78423 25-100, looked up)
chain: QHHGVTKCNITCSKMTSKIPVALLIHYQQNQASCGKRAIILETRQHRLFCADPKEQWVKDAMQHLDRQAAALTRNG
notes: fractalkine (CX3CL1), amplified from pUREstrept2 plasmid; printed size 8.5 kDa; also called fractalkine; CX3CL1-tagged with Strep-tag II; source: PURE system (cell-free), not purified, immobilized directly; not shown: Strep-tag II, N-terminal, kept
B1 showed a Kd (His-tagged CX3CR1 [2]) of 39.4 nM.
